“And” between values parts separate entries of the source, which are not always exact repeats. Equal entries are not always repeated. Where two headings read alike, the source gives them in different places.
T1: recombinant human APRIL (human, UniProt O75888 105-250, limits assumed)
T1 sequence (looked up): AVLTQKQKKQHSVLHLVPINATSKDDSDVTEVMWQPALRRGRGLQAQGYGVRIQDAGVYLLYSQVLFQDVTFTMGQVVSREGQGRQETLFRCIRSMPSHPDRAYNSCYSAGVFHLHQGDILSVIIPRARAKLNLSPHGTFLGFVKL


Key:
recombinant human APRIL [1] = target: T1, recombinant human APRIL; assay: cell-based or functional assay
[2] = target: recombinant human BAFF (human) (UniProt Q9Y275); assay: cell-based or functional assay
[3] = target: recombinant human BAFF (human) (UniProt Q9Y275)
recombinant human APRIL [4] = target: T1, recombinant human APRIL; assay: cell-based or functional assay; remark: listed apart in the source
recombinant human BAFF [5] = target: T2, recombinant human BAFF (human, UniProt Q9Y275 134-285); assay: cell-based or functional assay
recombinant human APRIL [6] = target: T1, recombinant human APRIL; assay: cell-based or functional assay; remark: listed apart in the source
recombinant human BAFF [7] = target: T2, recombinant human BAFF; assay: cell-based or functional assay; remark: listed apart in the source
recombinant human BAFF [8] = target: T2, recombinant human BAFF; assay: cell-based or functional assay; remark: listed apart in the source
recombinant human APRIL [9] = target: T1, recombinant human APRIL; assay: cell-based or functional assay; remark: listed apart in the source
recombinant human APRIL [10] = target: T1, recombinant human APRIL; assay: cell-based or functional assay; remark: listed apart in the source
recombinant human BAFF [11] = target: T2, recombinant human BAFF; assay: cell-based or functional assay; remark: listed apart in the source

Sequence of TACI 13-118-Fc (Fc fusion) (chain): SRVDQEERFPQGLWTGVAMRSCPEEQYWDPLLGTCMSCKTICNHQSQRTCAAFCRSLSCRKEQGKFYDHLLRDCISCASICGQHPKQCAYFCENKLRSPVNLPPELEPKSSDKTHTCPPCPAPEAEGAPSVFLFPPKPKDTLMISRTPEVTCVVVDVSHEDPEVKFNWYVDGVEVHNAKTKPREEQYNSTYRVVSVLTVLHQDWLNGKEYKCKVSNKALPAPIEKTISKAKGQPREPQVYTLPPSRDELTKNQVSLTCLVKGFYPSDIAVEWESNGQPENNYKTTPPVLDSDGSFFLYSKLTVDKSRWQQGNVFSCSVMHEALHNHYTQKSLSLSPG
Sequence of TACI 30-110-Fc (Fc fusion) (chain): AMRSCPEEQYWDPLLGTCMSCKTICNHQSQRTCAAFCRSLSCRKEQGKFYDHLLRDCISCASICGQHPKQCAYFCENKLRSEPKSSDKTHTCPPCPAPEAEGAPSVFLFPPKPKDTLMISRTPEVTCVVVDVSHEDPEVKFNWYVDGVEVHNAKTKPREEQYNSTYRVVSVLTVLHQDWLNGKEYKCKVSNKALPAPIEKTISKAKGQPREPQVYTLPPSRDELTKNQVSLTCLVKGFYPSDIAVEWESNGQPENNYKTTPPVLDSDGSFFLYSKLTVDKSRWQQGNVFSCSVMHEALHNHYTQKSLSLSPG

| APRIL IC50 (pM) (recombinant human APRIL [1]) | APRIL IC50 (ΔWT) (fold of WT TACI (68-110)-Fc) (recombinant human APRIL [1]) | BAFF IC50 (pM) [2] | BAFF IC50 (ΔWT) (fold of WT TACI (68-110)-Fc) [2] | Molecule | other results |
| --- | --- | --- | --- | --- | --- |
| 10100 | 0.82 | 2210 pM | 1.19 | TACI vTD-Fc K77E, F78Y, R84Q (SEQ ID NO: 182) (Fc fusion) |  |
| 2040 | 0.17 | 1960 pM | 1.06 | TACI vTD-Fc K77E, A101D (SEQ ID NO: 25) (Fc fusion) | IC50 (read off the curve): blockade of human BAFF signalling via TACI (NF-κB luciferase reporter, Jurkat/NF-κB/TACI cells) [3]: 0.6 nM |
| 8490 | 0.69 | 1960 pM | 1.06 | TACI vTD-Fc F78Y, Y102D (SEQ ID NO: 186) (Fc fusion) |  |
| 159 | 0.01 | 1540 pM | 0.83 | TACI vTD-Fc K77E (SEQ ID NO: 32) (Fc fusion) |  |
| 4260 | 0.35 | 2260 pM | 1.22 | TACI vTD-Fc K77E, R84Q (SEQ ID NO: 24) (Fc fusion) | IC50 (read off the curve): blockade of human BAFF signalling via TACI (NF-κB luciferase reporter, Jurkat/NF-κB/TACI cells) [3]: 0.6 nM |
| 2620 | 0.21 | 2260 pM | 1.22 | TACI vTD-Fc F78Y, R84Q (SEQ ID NO: 184) (Fc fusion) |  |
|  |  | 7740 pM | 4.17 | TACI 30-110-Fc (Fc fusion) | IC50 (nM) APRIL (recombinant human APRIL [1]): 4320 nM; IC50 APRIL (Δ TACI 30-110) (fold of TACI 30-110) (recombinant human APRIL [1]): 1; IC50 APRIL (Δ TACI 30-110-Fc) (fold of TACI 30-110-Fc) (recombinant human APRIL [1]): 1; IC50 (nM) BAFF [2]: 4490 nM; IC50 BAFF (Δ TACI 30-110) (fold of TACI 30-110) [2]: 1; IC50 BAFF (Δ TACI 30-110-Fc) (fold of TACI 30-110-Fc) [2]: 1 |
|  |  | 7900 pM | 4.26 | TACI 13-118-Fc (Fc fusion) | IC50 (nM) APRIL (recombinant human APRIL [1]): 7810 nM; IC50 APRIL (Δ TACI 30-110) (fold of TACI 30-110) (recombinant human APRIL [1]): 1.81; IC50 APRIL (Δ TACI 30-110-Fc) (fold of TACI 30-110-Fc) (recombinant human APRIL [1]): 2.37; IC50 (nM) BAFF [2]: 8450 nM; IC50 BAFF (Δ TACI 30-110) (fold of TACI 30-110) [2]: 1.88; IC50 BAFF (Δ TACI 30-110-Fc) (fold of TACI 30-110-Fc) [2]: 1.33 |
| 33600 | 2.72 | 1950 pM | 1.05 | TACI vTD-Fc A101D, Y102D (SEQ ID NO: 189) (Fc fusion) |  |
| 1940 | 0.16 | 1460 pM | 0.79 | TACI vTD-Fc Q75E (SEQ ID NO: 177) (Fc fusion) |  |
| 566 | 0.05 | 5490 pM | 2.96 | TACI vTD-Fc R84Q (SEQ ID NO: 30) (Fc fusion) | IC50 (read off the curve): blockade of human BAFF signalling via TACI (NF-κB luciferase reporter, Jurkat/NF-κB/TACI cells) [3]: 1 nM |
| 12300 | 1 | 1860 pM | 1.01 | TACI vTD-Fc R84Q, Y102D (SEQ ID NO: 188) (Fc fusion) |  |
| 11600 |  |  |  | TACI vTD-Fc Y102D (SEQ ID NO: 190) (Fc fusion) |  |
| 8380 | 0.68 | 1830 pM | 0.99 | TACI vTD-Fc A101D (SEQ ID NO: 23) (Fc fusion) | IC50 (read off the curve): blockade of human BAFF signalling via TACI (NF-κB luciferase reporter, Jurkat/NF-κB/TACI cells) [3]: 0.6 nM |
| 2020 | 0.16 | 1850 pM | 1 | TACI vTD-Fc F78Y, A101D (SEQ ID NO: 185) (Fc fusion) |  |
| 10700 | 0.87 | 1890 pM | 1.02 | TACI vTD-Fc Q75E, K77E (SEQ ID NO: 178) (Fc fusion) |  |
| 891 | 0.07 | 2180 pM | 1.17 | TACI vTD-Fc K77E, Y102D (SEQ ID NO: 192) (Fc fusion) |  |
| 11100 |  |  |  | TACI vTD-Fc Q75E, Y102D (SEQ ID NO: 181) (Fc fusion) |  |
| 11200 | 0.91 | 2350 pM | 1.27 | TACI vTD-Fc R84Q, A101D (SEQ ID NO: 187) (Fc fusion) |  |
| 176 | 0.01 | 1640 pM | 0.88 | TACI vTD-Fc F78Y (SEQ ID NO: 183) (Fc fusion) |  |
| 10100 | 0.82 | 1970 pM | 1.06 | TACI vTD-Fc K77E, F78Y (SEQ ID NO: 191) (Fc fusion) |  |
| 20000 | 1.62 | 2360 pM | 1.27 | TACI vTD-Fc Q75E, A101D (SEQ ID NO: 180) (Fc fusion) |  |
| 13400 | 1.09 | 1790 pM | 0.97 | TACI vTD-Fc Q75E, F78Y (SEQ ID NO: 179) (Fc fusion) |  |
|  |  | 53200 pM | 28.7 | BAFF-R ECD (from UniProt Q96RJ3 1-78) (receptor) |  |
|  |  | 9170 pM and 7300 pM | 4.95 and 3.94 | Telitacicept (label of two rows of Table E29) (Fc fusion, not shown: a dimerising Fc or GST) SRVDQEERFPQGLWTGVAMRSCPEEQYWDPLLGTCMSCKTICNHQSQRTCAAFCRSLSCRKEQGKFYDHLLRDCISCASICGQHPKQCAYFCENKLRSPVNLPPEL |  |
|  |  |  |  | TACI 13-118, with K77E/F78Y/Y102D, Fc fusion (Fc fusion) SRVDQEERFPQGLWTGVAMRSCPEEQYWDPLLGTCMSCKTICNHQSQRTCAAFCRSLSCRKEQGEYYDHLLRDCISCASICGQHPKQCADFCENKLRSPVNLPPELEPKSSDKTHTCPPCPAPEAEGAPSVFLFPPKPKDTLMISRTPEVTCVVVDVSHEDPEVKFNWYVDGVEVHNAKTKPREEQYNSTYRVVSVLTVLHQDWLNGKEYKCKVSNKALPAPIEKTISKAKGQPREPQVYTLPPSRDELTKNQVSLTCLVKGFYPSDIAVEWESNGQPENNYKTTPPVLDSDGSFFLYSKLTVDKSRWQQGNVFSCSVMHEALHNHYTQKSLSLSPG | IC50 (nM) APRIL (recombinant human APRIL [4]): 848 nM; IC50 APRIL (Δ TACI 30-110) (recombinant human APRIL [4]): 0.2 fold of TACI 30-110; IC50 (nM) BAFF (recombinant human BAFF [5]): 2050 nM; IC50 BAFF (Δ TACI 30-110) (recombinant human BAFF [5]): 0.46 fold of TACI 30-110; APRIL IC50 (pM) (recombinant human APRIL [6]): 13200 pM; APRIL IC50 (ΔWT) (recombinant human APRIL [6]): 1.07 fold of WT TACI (68-110)-Fc; BAFF IC50 (pM) (recombinant human BAFF [7]): 1990 pM; BAFF IC50 (ΔWT) (recombinant human BAFF [7]): 1.07 fold of WT TACI (68-110)-Fc |
|  |  |  |  | 20 TACI CRD2-Fc (Fc fusion) variant TACI domain - linker - Fc fusion chain: SLSCRKEQGKFYDHLLGDCISCASICGQHPKQCAYFCENKLRSGSGGGGSEPKSSDKTHTCPPCPAPEAEGAPSVFLFPPKPKDTLMISRTPEVTCVVVDVSHEDPEVKFNWYVDGVEVHNAKTKPREEQYNSTYRVVSVLTVLHQDWLNGKEYKCKVSNKALPAPIEKTISKAKGQPREPQVYTLPPSRDELTKNQVSLTCLVKGFYPSDIAVEWESNGQPENNYKTTPPVLDSDGSFFLYSKLTVDKSRWQQGNVFSCSVMHEALHNHYTQKSLSLSPG | IC50 (read off the curve): blockade of human BAFF signalling via TACI (NF-κB luciferase reporter, Jurkat/NF-κB/TACI cells) (recombinant human BAFF [8]): ~0.7 nM |
|  |  |  |  | 31 TACI CRD2-Fc (Fc fusion) variant TACI domain - linker - Fc fusion chain: SLSCRKEQGKFYDHLLQDCINCASICGQHPKQCDYFCENKLRSGSGGGGSEPKSSDKTHTCPPCPAPEAEGAPSVFLFPPKPKDTLMISRTPEVTCVVVDVSHEDPEVKFNWYVDGVEVHNAKTKPREEQYNSTYRVVSVLTVLHQDWLNGKEYKCKVSNKALPAPIEKTISKAKGQPREPQVYTLPPSRDELTKNQVSLTCLVKGFYPSDIAVEWESNGQPENNYKTTPPVLDSDGSFFLYSKLTVDKSRWQQGNVFSCSVMHEALHNHYTQKSLSLSPG | IC50 (read off the curve): blockade of human BAFF signalling via TACI (NF-κB luciferase reporter, Jurkat/NF-κB/TACI cells) (recombinant human BAFF [8]): ~0.6 nM |
|  |  |  |  | 7 TACI CRD1/CRD2-Fc (Fc fusion) variant TACI domain - linker - Fc fusion chain: VAMRSCPEEQYWDPLLGTCMSCKTICNHQSQRTCAAFCRSLSCRKEQGKFYDHLLRDCISCASICGQHPKQCDYFCENKLRSGSGGGGSEPKSSDKTHTCPPCPAPEAEGAPSVFLFPPKPKDTLMISRTPEVTCVVVDVSHEDPEVKFNWYVDGVEVHNAKTKPREEQYNSTYRVVSVLTVLHQDWLNGKEYKCKVSNKALPAPIEKTISKAKGQPREPQVYTLPPSRDELTKNQVSLTCLVKGFYPSDIAVEWESNGQPENNYKTTPPVLDSDGSFFLYSKLTVDKSRWQQGNVFSCSVMHEALHNHYTQKSLSLSPG | IC50 (read off the curve): blockade of human APRIL signalling via TACI (NF-κB luciferase reporter, Jurkat/NF-κB/TACI cells) (recombinant human APRIL [9]): ~3 nM; IC50 (read off the curve): blockade of human BAFF signalling via TACI (NF-κB luciferase reporter, Jurkat/NF-κB/TACI cells) (recombinant human BAFF [8]): ~2 nM |
|  |  |  |  | belimumab (antibody, V domains shown) VH: QVQLQQSGAEVKKPGSSVRVSCKASGGTFNNNAINWVRQAPGQGLEWMGGIIPMFGTAKYSQNFQGRVAITADESTGTASMELSSLRSEDTAVYYCARSRDLLLFPHHALSPWGRGTMVTVSS VL: SSELTQDPAVSVALGQTVRVTCQGDSLRSYYASWYQQKPGQAPVLVIYGKNNRPSGIPDRFSGSSSGNTASLTITGAQAEDEADYYCSSRDSSGNHWVFGGGTELTVLG | IC50 APRIL (Δ TACI 30-110-Fc) (recombinant human APRIL [10]): 55.8 fold of TACI 30-110-Fc; IC50 BAFF (Δ TACI 30-110-Fc) (recombinant human BAFF [11]): 0.43 fold of TACI 30-110-Fc; BAFF IC50 (pM) (recombinant human BAFF [7]): 2200 pM; BAFF IC50 (ΔWT) (recombinant human BAFF [7]): 1.18 fold of WT TACI (68-110)-Fc |

— patent US20250019412A1 (ALPINE IMMUNE SCIENCES, published 2025)
